In publication PMC7099567, “Enzymatic Synthesis of 2-Keto-3-Deoxy-6-Phosphogluconate by the 6-Phosphogluconate-Dehydratase From Caulobacter crescentus” (Frontiers in Bioengineering and Biotechnology, 2020):

Experiments:
purified protein = substrate: O=C(O)[C@H](O)[C@@H](O)[C@H](O)[C@H](O)COP(=O)(O)O; assay: purified protein; assay type: biochemical, Caulobacter vibrioides; settings: 100 mM HEPES pH 8.0, 37 C, 0.2 mM NADH, enzyme purified and stored with 5 mM MnCl2
[1] = target: the molecule itself; assay: SEC; HiLoad 26/60 Superdex 200 prep grade; buffer C (50 mM HEPES/KOH, 300 mM NaCl, 5 mM MnCl, pH 8); isocratic flow 2 ml min^-1; native mass compared with the subunit mass from SDS-PAGE

B1: 6-phosphogluconate dehydratase/Entner-Doudoroff dehydratase (EDD) from Caulobacter crescentus (enzyme, UniProt A0A0H3CB86 1-602, looked up)
chain: MSLNPVIADVTARIVARSKDSRAAYLANMDRAIENQPGRAKLSCANWAHAFAASPGVDKLRALDPNAPNIGIVSAYNDMLSAHQPLEAYPALIKDAARDVGATAQFAGGVPAMCDGVTQGRPGMELSLFSRDVIAMATAVALTHDAFDSALYLGVCDKIVPGLVIGALTFSHLPALFVPAGPMTSGLPNSEKARIRALYAEGKVGREELLAAESASYHGPGTCTFYGTANTNQMLMELMGFHLPGSAFVHPNTPLREALVKESARRVAAVTNKGNEFIPVGRMIDEKSFVNGVVGLMATGGSTNLALHIIAMAAAAGVQLTLEDLDDISKATPLLARVYPNGSADVNHFQAAGGMAFVIRELLKAGLVHEDVQTIAGAGLSLYAKEPVLEDGMLTWRDGAHESLDPAIVRPVSDPFSKEGGLRLMAGNLGRGVMKISAVKPEHHVIEAPCAVFQEQEDFIAAFKRGELDRDVVVVVRFQGPSANGMPELHNLSPSISVLLDRGHKVALVTDGRMSGASGKTPAAIHVTPEAAKGGPLAYVQDGDVIRVNAETGELKIMVDEATLLARTPANVPASKPGFGRELFGWMRSGVGAADAGASVFA
notes: Homodimer by size exclusion chromatography (130 kDa native, 63.2 kDa by SDS-PAGE); also called CcEDD; 6PG dehydratase; source: E. coli BL21 (DE3), pET15b, purified (Ni-TED)
For B1, which Km (purified protein) is on record?
The Km was 300 µM.

What about the “stoichiometry N” value [1] of the same protein?
Its value is 2.
